Results as given in paper doi:10.1101/2022.02.08.479534, “FoxP3 can fold into two distinct dimerization states with divergent functional implications for T cell homeostasis”.

Key:
Experiment in all cases: EMSA; equal to sFKHM; EMSA: 0.2 uM DNA, 20 mM Tris pH 7.5, 150 mM NaCl, 1.5 mM MgCl2, 2 mM DTT, 30 min at 4 C; anti-HA bead DNA pull-down: 20 min at room temperature; the EMSA IR-FKHM4g length is taken as 31 bp
Details in all cases: protein: recombinant; tags: His6-NusA; blunt
NusA-FoxP4RBR-forkhead = target: T1, NusA-FoxP4RBR-forkhead (Mus musculus, UniProt Q9DBY0 418-577)
T1 sequence: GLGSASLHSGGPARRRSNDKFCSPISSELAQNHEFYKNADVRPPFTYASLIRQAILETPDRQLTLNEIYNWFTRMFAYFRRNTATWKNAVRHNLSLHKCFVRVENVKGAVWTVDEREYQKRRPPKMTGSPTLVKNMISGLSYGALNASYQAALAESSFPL

NusA-FoxP2RBR-forkhead = target: T2, NusA-FoxP2RBR-forkhead (Mus musculus, UniProt P58463 447-588)
T2 sequence: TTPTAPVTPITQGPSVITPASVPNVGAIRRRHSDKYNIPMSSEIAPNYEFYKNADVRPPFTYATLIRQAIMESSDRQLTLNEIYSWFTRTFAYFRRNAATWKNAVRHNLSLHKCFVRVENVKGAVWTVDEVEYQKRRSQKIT

NusA-FoxP1RBR-forkhead = target: T3, NusA-FoxP1RBR-forkhead (Mus musculus, UniProt P58462 433-579)
T3 sequence: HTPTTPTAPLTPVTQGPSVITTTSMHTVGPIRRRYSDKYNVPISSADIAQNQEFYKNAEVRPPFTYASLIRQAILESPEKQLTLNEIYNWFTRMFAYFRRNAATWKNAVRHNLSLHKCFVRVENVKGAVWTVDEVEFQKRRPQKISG

Measured: binding result

B1: IR-FKHM4g (31bp) (dsDNA)
DNA 1: TTAGGAAAATTTGTTTACTCGAGTAAACAAA
DNA 2: TTTGTTTACTCGAGTAAACAAATTTTCCTAA
binds: NusA-FoxP4RBR-forkhead | NusA-FoxP2RBR-forkhead | NusA-FoxP1RBR-forkhead
